Experiments:
cynomolgus CTGF = assay: SPR binding kinetics and affinity, cynomolgus CTGF; conditions: 25° C., 1:1 binding model
Protocol: (§1) Surface plasmon resonance (SPR) was used to measure binding kinetics and affinity of the representative lipocalin muteins disclosed herein.
(§2) The binding of exemplary lipocalin muteins to human (Creative Biomart), cynomolgus, rat (R&D Systems) and mouse CTGF (Abbexa) was determined by SPR using a Biacore instrument (Cytiva, formerly GE Healthcare). Some targets were fused to a human IgG1 Fc tag, and captured via the anti-human IgG antibody kit, others were directly immobilized.
(§3) For some measurements, human CTGF with a human IgG1 Fc Tag or rat or murine CTGF without a tag were directly immobilized to a CM5 Chip. The carboxyl groups on the chip were activated using 1-ethyl-3-(3-dimethylaminopropyl)-carbodiimide (EDC) and N-hydroxysuccinimide (NHS). Subsequently, the targets at a concentration of 3-5 μg/mL in 10 mM sodium acetate (pH) 4.5 were applied at a flow rate of 10 μL/min until an immobilization level of 300-1100 resonance units was achieved. Residual non-reacted NHS-esters were blocked by passing a solution of 1 M ethanolamine across the surface. The reference channel was activated/deactivated. For the capture setting, targets with an IgG Fc Tag at 0.25-2.5 μg/mL in HBS-EP+ buffer were captured by the anti-human IgG-Fc antibody at the chip surface for 180 s at a flow rate of 10 μL/min.
(§4) The binding assay was carried out with a contact time of 180 s, a dissociation time of 900-3600 s and a flow rate of 30 μL/min. All measurements were performed at 25° C. […] For the directly immobilized targets, the same regeneration conditions were used. Prior to the protein measurements, three startup cycles were performed for conditioning purposes. Data were evaluated with Biacore Evaluation software. Double referencing was used and the 1:1 binding model was used to fit the raw data.
(§5) The values determined for kon, koff and the resulting equilibrium dissociation constant (KD) for exemplary lipocalin muteins are summarized in Table 4.

human CTGF [1] = target: T1, human CTGF (Homo sapiens, UniProt P29279); assay: SPR binding kinetics and affinity, human CTGF; conditions: 25° C., 1:1 binding model
T1 construct: purchased Creative Biomart
Method in brief: (§6)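 Biacore SPR at 25 °C; CTGF either Fc-captured via anti-human IgG (HBS-EP+) or amine-coupled to CM5 (300–1100 RU). Muteins injected 180 s contact, 900–3600 s dissociation, 30 μL/min.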

human CTGF [2] = target: T2, human CTGF (Homo sapiens, UniProt P29279, H83D); assay: SPR binding kinetics and affinity, human CTGF; conditions: 25° C., 1:1 binding model
T2 construct: purchased Creative Biomart
Method in brief: as §6

Rat CTGF = target: T3, Rat CTGF (Rattus norvegicus, UniProt Q9R1E9); assay: SPR binding kinetics and affinity, rat CTGF; conditions: 25° C., 1:1 binding model
T3 construct: purchased R&D Systems
T3 sequence (Q9R1E9 25-347): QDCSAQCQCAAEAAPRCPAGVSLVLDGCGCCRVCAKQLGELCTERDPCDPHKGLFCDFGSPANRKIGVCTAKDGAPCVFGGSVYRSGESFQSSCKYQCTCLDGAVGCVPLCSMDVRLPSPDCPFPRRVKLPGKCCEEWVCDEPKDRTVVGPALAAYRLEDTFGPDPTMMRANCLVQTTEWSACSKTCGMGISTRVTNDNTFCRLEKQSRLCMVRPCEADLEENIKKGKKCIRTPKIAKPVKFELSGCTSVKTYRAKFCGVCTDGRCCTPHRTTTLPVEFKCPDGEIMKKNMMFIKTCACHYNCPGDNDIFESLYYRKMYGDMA
Protocol: as §1, §2, §3, §4, §5

[3] = Thermal stability assessment by nanoDSC; assay type: physicochemical; conditions: 1 mg/mL in PBS, scan 25-100° C. at 1° C./min
Method in brief: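 CTGF-specific lipocalin muteins at 1 mg/mL in PBS scanned from 25 to 100° C at 1° C/min by capillary nano-DSC. Where several transitions occur, the Tm of the major unfolding event is reported, along with onset temperature. Some muteins were expressed in E. coli, others in CHO cells.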

Murine CTGF = target: T4, Murine CTGF (Mus musculus, UniProt P29268); assay: SPR binding kinetics and affinity, murine CTGF; conditions: 25° C., 1:1 binding model
T4 construct: purchased Abbexa
T4 sequence (P29268 26-348): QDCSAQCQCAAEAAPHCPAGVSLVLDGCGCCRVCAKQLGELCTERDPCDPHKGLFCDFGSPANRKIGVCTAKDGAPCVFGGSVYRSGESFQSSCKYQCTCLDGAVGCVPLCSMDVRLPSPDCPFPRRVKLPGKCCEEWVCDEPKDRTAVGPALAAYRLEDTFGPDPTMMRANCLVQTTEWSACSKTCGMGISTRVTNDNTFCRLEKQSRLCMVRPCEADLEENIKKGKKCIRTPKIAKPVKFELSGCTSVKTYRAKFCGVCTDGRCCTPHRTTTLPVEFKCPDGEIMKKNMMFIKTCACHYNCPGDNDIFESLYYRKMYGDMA
Method in brief: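 Targets either amine-coupled to CM5 chip (300–1100 RU; Fc-tagged human, untagged rat/murine) or Fc-captured via anti-human IgG; muteins injected 180 s contact, 900–3600 s dissociation, 30 μL/min, 25° C. Double-referenced sensorgrams fit to 1:1 model giving kon, koff and KD.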

[4] = system: bleomycin-induced lung fibrosis; assay: Bleomycin mouse model of lung fibrosis; assay type: in vivo; conditions: day 14 after bleomycin
Protocol: The anti-fibrotic activity of lipocalin muteins upon local delivery to the lung was evaluated in vivo using a mouse model of bleomycin-induced lung fibrosis. Bleomycin is a DNA damaging agent, also used in cancer therapy, which induces a severe damage of the lung epithelium upon delivery to the lungs of rodents. The injury causes a strong inflammatory response in the lungs which in turn triggers fibrotic response. The peak of fibrotic remodeling, usually observed between day 14 and 21 after bleomycin challenge, is characterized by an excessive deposition of extracellular matrix and destruction of alveolar lung structures. Here, approximately 9 weeks old, male C57BL/6N mice were challenged with bleomycin at a dose of 1 mg/kg or saline as a control via the intranasal route. Animals were treated daily with lipocalin muteins at a dose of 5 mg/kg or PBS as a vehicle control via local delivery to the lungs from day 0 to day 13 after bleomycin challenge. […] Animals were sacrificed at day 14 after bleomycin challenge and level of lung fibrosis was analyzed in formalin fixed, paraffin embedded lung tissues by histopathological evaluation using the Ashcroft score (Matsuse modification) and quantitative digital analysis of IHC detected Collagen1a1 protein deposition.
For determination of the Ashcroft score lung tissue slides were stained according to the Crossman's Trichrome method (Gray, Peter (1954) The Microtomist's Formulary and Guide. Blakiston, New York, 1954). The whole pulmonary area subjected for histopathological analysis was evaluated at ten low magnification fields and total score for each animal was calculated as a mean (Ashcroft et al., Journal of clinical pathology 41.4 (1988): 467-470; Matsuse, T., et al. European Respiratory Journal 13.1 (1999): 71-77.). […]
Collagen1a1 (Col1a1) deposition was analyzed by immunohistochemistry as a second measure for fibrotic lung remodeling. […] Stained tissue slides were evaluated for Col1a1 deposition by digital image analysis using the morphometry protocol (CaloPix software, TRIBVN). […]

[5] = mutein 5 mg/kg daily to lung, antibody 10 mg/kg every other day intravenous

Chain of cynomolgus CTGF (as listed by the source): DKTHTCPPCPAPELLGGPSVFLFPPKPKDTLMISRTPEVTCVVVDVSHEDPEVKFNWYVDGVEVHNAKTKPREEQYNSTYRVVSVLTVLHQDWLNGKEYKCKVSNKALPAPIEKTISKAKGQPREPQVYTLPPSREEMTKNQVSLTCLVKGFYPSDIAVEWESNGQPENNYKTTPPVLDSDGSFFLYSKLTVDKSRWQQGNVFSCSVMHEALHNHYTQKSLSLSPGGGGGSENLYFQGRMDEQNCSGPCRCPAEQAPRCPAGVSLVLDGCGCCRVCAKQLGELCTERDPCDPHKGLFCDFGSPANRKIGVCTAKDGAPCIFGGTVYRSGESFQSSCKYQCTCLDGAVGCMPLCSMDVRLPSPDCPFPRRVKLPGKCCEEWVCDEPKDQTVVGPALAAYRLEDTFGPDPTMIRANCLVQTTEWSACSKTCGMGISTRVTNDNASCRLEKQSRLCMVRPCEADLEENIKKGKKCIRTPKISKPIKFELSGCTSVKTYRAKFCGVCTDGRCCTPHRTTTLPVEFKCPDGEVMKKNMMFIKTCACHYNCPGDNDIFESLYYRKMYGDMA
T2 sequence (P29279 with tags, fused parts or gaps H83D): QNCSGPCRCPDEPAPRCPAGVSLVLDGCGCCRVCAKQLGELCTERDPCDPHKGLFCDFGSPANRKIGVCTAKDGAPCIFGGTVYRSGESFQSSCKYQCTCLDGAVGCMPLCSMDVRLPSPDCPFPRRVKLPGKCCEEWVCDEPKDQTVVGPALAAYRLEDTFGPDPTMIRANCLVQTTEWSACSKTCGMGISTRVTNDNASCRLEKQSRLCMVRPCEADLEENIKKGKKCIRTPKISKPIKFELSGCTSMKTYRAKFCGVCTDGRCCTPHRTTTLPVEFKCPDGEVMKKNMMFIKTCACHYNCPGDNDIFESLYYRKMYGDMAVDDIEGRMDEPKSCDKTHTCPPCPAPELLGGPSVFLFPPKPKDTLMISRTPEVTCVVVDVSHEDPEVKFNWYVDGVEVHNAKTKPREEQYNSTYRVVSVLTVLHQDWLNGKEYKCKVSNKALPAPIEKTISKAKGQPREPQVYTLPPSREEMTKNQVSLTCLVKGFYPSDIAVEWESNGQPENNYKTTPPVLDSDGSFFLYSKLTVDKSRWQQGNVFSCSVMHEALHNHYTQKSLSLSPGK
T1 sequence (P29279 with tags, fused parts or gaps H83D): as above

B1: SEQ ID NO: 24: optimized CTGF-binding hNGAL lipocalin mutein (protein)
chain: QDSTSDLIPAPPLSKVPLQQNFQDNQFQGKWYVVGVAGNAILRTDKQPAKMFATIYELKEDKSYDVTSVRFEAKSCKYTIKTFVPGSQPGEFTAGNIKSAPGQTSTLVRVVSTNYNQHAMVFFKHVSQNREIFVITLYGRTKELTSELKENFIRFSKSLGLPENHIVFPVPIDQCIDG
modifications: lipocalin mutein
Cynomolgus CTGF
  cynomolgus CTGF koff: 2.63e-05 s⁻¹
  cynomolgus CTGF kon: 195000 M⁻¹ s⁻¹
Human CTGF [1]
  human CTGF koff: 1.41e-05 s⁻¹
Human CTGF [2]
  human CTGF kon: 157000 M⁻¹ s⁻¹
Rat CTGF
  Rat CTGF koff: 3.51e-05 s⁻¹
  Rat CTGF kon: 138000 M⁻¹ s⁻¹
[3]
  ONSET MELTING: 58 °C
[3]; major transition
  TM: 72 °C
Murine CTGF
  Murine CTGF koff: 1.16e-05 s⁻¹
  Murine CTGF kon: 299000 M⁻¹ s⁻¹
[4]; mutein 5 mg/kg daily local lung delivery day 0-13
  Reduction of Ashcroft score vs mean of vehicle-treated animals: 14.1%
[4]; [5]
  Effect on Ashcroft score: significantly decreased the Ashcroft score
  Reduction of Col1a1 positive lung surface area vs mean of vehicle controls: 25.2%

Reference: patent publication US20240228562A1, “NOVEL LIPOCALIN MUTEINS SPECIFIC FOR CONNECTIVE TISSUE GROWTH FACTOR (CTGF)” (PIERIS PHARMACEUTICALS GMBH, priority 2021, published 2024)
